Target: hIL-12 receptor signaling complex (hIL-12Rβ1 and hIL-12Rβ2) (human) (UniProt P42701)
Assay: cell-based or functional assay

hIL-12 receptor signaling complex (hIL-12Rβ1 and hIL-12Rβ2) (human), sequence (Q99665 24-862, chain 2 of 2, other chains not shown): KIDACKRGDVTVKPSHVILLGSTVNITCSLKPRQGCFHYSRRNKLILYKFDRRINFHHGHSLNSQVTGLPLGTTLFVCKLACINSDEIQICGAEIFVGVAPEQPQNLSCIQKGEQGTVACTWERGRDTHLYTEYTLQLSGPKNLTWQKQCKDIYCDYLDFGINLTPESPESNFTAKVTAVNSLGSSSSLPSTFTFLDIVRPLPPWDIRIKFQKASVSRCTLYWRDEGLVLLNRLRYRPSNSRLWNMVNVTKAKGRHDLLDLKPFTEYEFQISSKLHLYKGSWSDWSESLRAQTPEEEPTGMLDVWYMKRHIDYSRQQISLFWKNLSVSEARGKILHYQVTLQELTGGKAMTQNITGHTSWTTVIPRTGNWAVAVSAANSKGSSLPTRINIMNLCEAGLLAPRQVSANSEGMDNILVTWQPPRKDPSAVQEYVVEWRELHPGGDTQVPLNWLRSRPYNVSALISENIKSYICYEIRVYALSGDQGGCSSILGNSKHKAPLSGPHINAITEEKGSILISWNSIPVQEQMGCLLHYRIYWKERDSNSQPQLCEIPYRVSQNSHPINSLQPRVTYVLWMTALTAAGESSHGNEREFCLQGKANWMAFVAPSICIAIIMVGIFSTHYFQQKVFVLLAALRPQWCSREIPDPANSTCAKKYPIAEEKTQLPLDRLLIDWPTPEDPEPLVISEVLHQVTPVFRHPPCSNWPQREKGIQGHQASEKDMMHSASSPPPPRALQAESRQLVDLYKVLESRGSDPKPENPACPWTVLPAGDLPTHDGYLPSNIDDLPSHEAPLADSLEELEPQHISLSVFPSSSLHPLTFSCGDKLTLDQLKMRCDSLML

| pSTAT4 [%+] EC50, CD8+ T Cells | pSTAT4 [%+] EC50, CD56hi NK Cells | pSTAT4 [%+] Emax, CD8+ T Cells | pSTAT4 [%+] Emax, CD56hi NK Cells | pSTAT4 [gMFI] EC50, CD8+ T Cells | pSTAT4 [gMFI] EC50, CD56hi NK Cells | pSTAT4 [gMFI] Emax, CD8+ T Cells | pSTAT4 [gMFI] Emax, CD56hi NK Cells | Substance |
| --- | --- | --- | --- | --- | --- | --- | --- | --- |
| 1.86 nM | 2.27 nM | 75.9 %+ | 78.2 %+ | 6.65 nM | 9.12 nM | 80100 gMFI | 21600 gMFI | human IL12 mutein of the F82X panel printed as E81A/F82F/K106K in row r9 of Tables 10 and 11 (label printed a second time in r19 with other values) (ligand) |
| 0.86 nM | 1.4 nM | 80.5 %+ | 86.1 %+ | 3.84 nM | 6.29 nM | 95900 gMFI | 26200 gMFI | human IL12 mutein, hIL-12p40 E81A, F82S with hIL-12p35-8X His (from UniProt P29460 23-328; P29459 23-219) (ligand) |

— patent publication US20250388640A1
